The record followed here is patent US20050037421A1 (INSTITUTE FOR ANTIBODIES, published 2005).

Experiment [1] has as its target T1, Bacillus stearothemophillus-derived lactic acid dehydrogenase (L-LACTIC DEHYDROGENASE) expressed in E. coli (Bacillus stearothemophillus, UniProt P00344 1-317).
T1 construct: purity about 80%; also called LDH
Kind of experiment: ELISA: LDH on the plate (PBS wells as negative control), culture supernatant with VHH-cp3, anti-cp3 monoclonal and anti-mouse IgG-POD, OD 492 nm. How it is done: Similarly to anti-GST VHH, 60 clones and 36 clones were prepared as monoclones from the 3rd and 4th screenings, respectively. Next, ELISA was performed similarly as for anti-GST VHH.
LDH dissolved in PBS at 200 μg/mL was used to sensitize MaxiSorp™. Culture supernatant, 10-fold diluted mouse anti-cp3 monoclonal 3G3A8H1, and 1000-fold diluted goat anti-mouse IgG (H+L)-POD were added as primary, secondary, and tertiary antibodies, respectively, to this antigen-sensitized plate. As negative control, PBS was added instead of performing antigen sensitization.
(In general: An ELISA detects its analyte on a solid surface through an enzyme-linked reagent.)

Experiment [2] concerns the target T1, Bacillus stearothemophillus-derived …. Kind of experiment: cell-based or functional assay.
The target is the same in experiment [3]. Nature of the experiment: SPR (BIAcore), LDH immobilized on CM5, (Langmuir) binding model. How it is done: (§1) […] on CM5 were activated using EDC/NHS (equal amounts of EDC and NHS of Amine Coupling Kit (BIAcore) were mixed) (8-minute contact time), and the chip was washed with HBS-EP (BIAcore). Twenty μg/mL of LDH (Sigma, […] diluted in 10 mM acetic acid (pH5.0)) was then added to the chip. After washing the chip with HBS-EP, 1 M ethanol amine (pH 8.5) was added to inactivate the remaining activated carboxyl groups. Following the inactivation, the chip was washed with HBS-EP to remove all LDHs that had not been covalently bound. The amount of immobilized antigens was calculated 5653 RU. When binding was evaluated by adding saturating amounts of clone No. 430 to the sensor, the value was near 800 RU.
(§2) All experiments were performed in HBS-EP at 25° C., and regeneration was performed under optimum conditions. Washing was performed for 1 min using 50 mM citric acid (pH2.5).
(§3) The binding was monitored by changing the LDH concentration (5×10⁻⁸ M to 4.0×10⁻⁷ M). […] Base-line correction was also taken into consideration. Values of ka (1/Ms), kd (1/S), and KD calculated based on kinetic analysis using global fitting (BIAevaluation Ver. 3) were as shown in Table 6.
On the technique in general: Surface plasmon resonance follows binding to a sensor surface in real time, without labels.

The target is the same in experiment [4]. Kind of experiment: SPR (BIAcore), LDH immobilized on CM5 at 5653 RU. How it is done:
Procedure similar to that with GST was used to immobilize LDH on CM-sensor chip (Sensor Chip CM5, Research grade, BIAcore) using the amino coupling method.
as §1

Experiment [5] has the same target. Kind of experiment: SPR (BIAcore), LDH immobilized on CM5, 1:1 binding with mass transfer model. The procedure:
as §1, §2, §3

Experiment [6] concerns the target glutathione S-transferase (GST). Kind of experiment: SPR (BIAcore 1000), GST immobilized on CM5, Langmuir model, global fitting.
The target is the same in experiment [7]. Kind of experiment: SPR (BIAcore 1000), GST immobilized on CM5 at 2252 RU.
Experiment [8] has the same target. Kind of experiment: SPR (BIAcore 1000), GST immobilized on CM5, from kinetic analysis.
The target is the same in experiment [9]. Kind of experiment: cell-based or functional assay.
Experiment [10] has the same target. Kind of experiment: SPR (BIAcore 1000), GST immobilized on CM5, global fitting; mass transport limitation, value used as the lower limit.
For experiment [11] the target is unchanged. Nature of the experiment: SPR (BIAcore 1000), GST immobilized on CM5.
The target is the same in experiment [12]. Kind of experiment: SPR (BIAcore 1000), GST immobilized on CM5 at 1750 RU.

T1 sequence (P00344 whole entry): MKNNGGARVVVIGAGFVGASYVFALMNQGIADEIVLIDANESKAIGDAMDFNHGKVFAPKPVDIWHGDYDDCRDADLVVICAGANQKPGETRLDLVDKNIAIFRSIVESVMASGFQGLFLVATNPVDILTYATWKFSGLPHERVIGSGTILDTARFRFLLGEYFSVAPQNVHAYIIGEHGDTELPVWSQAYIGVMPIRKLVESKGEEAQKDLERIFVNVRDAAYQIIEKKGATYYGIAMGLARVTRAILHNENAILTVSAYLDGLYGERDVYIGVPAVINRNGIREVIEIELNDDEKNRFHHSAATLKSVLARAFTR

B1: anti-LDH VHH clone No. 426, protein A-fused type (VHH)
VHH: EVQLVESGGGSVQAGGSLRLSCAAPGNTYSTNLMGWFRQAPGKEREGVAAICCGRGTTFYADSVKGRFTISQDNAKKMVYLQMELLRPEDTGIYYCASGSVRGIWSGTSQYKYWGQGTQVTVSS
notes: not shown: protein A part of the vector after SalI digestion and self-ligation
Consider B1, for which, in experiment [1], the binding result is “binds”.

B2: anti-LDH VHH clone No. 418, protein A-fused type (VHH, not shown: large carriers)
VHH: EVQLVESGGGSVQAGDSLRLSCTTSGFTFANSVMVWYRQGSGNECKLVSSISTDGTTYYSTSVKGRFTISRDNAKNTVYLQMNNLKAEDTAMYYCAADFQASTVGRCDGYGYAKWGQGTQVTVSS
As to B2, the “LDH reaction rate in the direction of lactic acid production” value (“LDH reaction rate in the direction” below) in experiment [2] is 10 fold.

B3: anti-LDH VHH clone No. 428, protein A-fused type (VHH)
VHH: QVQLVESGGGLVQPGGSLRLSCAASGFSFSRSGMSWGRQAPGKGFEWVSRISSGGATWYADSVKGRFSISRDNAKNTVYLQLDSLKTEDTGMYYCAASDRSGSTYRGQGTQVTVSS
notes: as for B1
A word on the Kd: it is the equilibrium constant for the complex coming apart. Higher therefore signals weaker binding. As a reminder, the koff is the first-order rate constant of dissociation. Lower therefore signals slow dissociation. Usually kon stands for the second-order rate constant of association. High values mean faster complex formation, low ones slower complex formation. Turning to B3, in [3], the Ka stood at 2.81e+06 M⁻¹; the affinity, expressed as Kd, was 356 nM; the koff was 0.00513 s⁻¹; the kon came to 14400 M⁻¹ s⁻¹. For the same molecule, the “response at saturating amount (RU)” value in experiment [4] is around 500 RU. In addition, the “LDH reaction rate in the direction” value in experiment [2] stood at 5 fold. Moreover, in [5], the Ka was determined as 2.86e+06 M⁻¹, the equilibrium dissociation constant (Kd) amounted to 350 nM, the koff came to 0.00516 s⁻¹ and the kon is 14800 M⁻¹ s⁻¹.

B4: anti-LDH VHH clone No. 407, protein A-fused type (VHH)
VHH: AVQLVESGGGSVQTGGSLRLSCVASGYTYSSARIGWFRQAPGKEREGVAAILTDGVTTYYADAVKGRFTISRDNAKNTVYLQMNSLKPEDTAMYYCAIRTSPYSGGWFRVSQYNGWGQGTQVTVSS
notes: as for B1
Turning to B4, in experiment [1], the binding result is on record as “binds”.

B5: anti-LDH VHH clone No. 430, protein A-fused type (VHH)
VHH: EVQLVESGGDSVQAGGSLRLSCVASSSTYSGNCMAWFRQAPGKEREGVAVVYTDDDTTYYADSVKGRFTISQDTAKNTLYLQMNSLKPEDTAMYYCATRDAWRRIGSWRDVAIYDYWGQGTQVTVSS
notes: as for B1
As for B5, in [3], the Ka is 3.8e+06 M⁻¹, the Kd amounted to 263 nM, the koff was found to be 0.00258 s⁻¹ and the kon was found to be 9820 M⁻¹ s⁻¹. The “response at saturating amount (RU)” value in experiment [4] is around 800 RU. For the same molecule, in experiment [2], the “IC50 of LDH enzyme inhibition” value is around 400 nM. In experiment [5], this molecule gave a Ka of 4.04e+06 M⁻¹, a Kd of 248 nM, a koff of 0.00285 s⁻¹ and a kon of 11500 M⁻¹ s⁻¹.

B6: anti-LDH VHH clone No. 415, protein A-fused type (VHH)
VHH: DVQLVESGGGSEQAGGSLRLSCAAPNITYCTGDRSWYRQAPGKEREFVSSINNDGTASYADSVKGRFTISQDIVKKSVYLRMNSLKPEDTAMYYCKTDFVDGTWCAIKFGRTHWGQGTQVTVSS
notes: as for B1
On to B6, for which the binding result in experiment [1] is on record as “binds”.

B7: anti-LDH VHH clone No. 434, protein A-fused type (VHH)
VHH: EVQLVESGGGSVQAGGSLRLSCAASGYTSGRNYMAWFRQAPGKEREGVGRIYSTGGSARYADSVKGRFTISQDLSNDTMYLQMNNLKPEDTGMYYCAAGKPYGDMLDARGYKYWGHGTQVTVSS
notes: as for B1
In the case of B7, the binding result in experiment [1] is “binds”.

B8: anti-GST VHH clone No. 75, protein A-fused type (VHH, not shown: large carriers)
VHH: AVQLVDSGGGSVQAGGSLRLSCAASGTTYCTYDIAWYRQAPEKDYEFVSVIDSDGSTRYADSVKGRFTISRDNAKNTVYLQMNSLKPEDTAMYYCKTVFKSWCSDGLGTTLPNYWGQGTQVTVSS
In turn, B8 returned a kon in experiment [6] of 38100 M⁻¹ s⁻¹. Moreover, the response at saturating amount (RU) in experiment [7] was determined as 300 RU. In experiment [8], this molecule registered a Kd of 24 nM. This molecule displayed a GST enzyme inhibitory activity (absorbance at 340 nm, CDNB and glutathione as substrates) in experiment [9] above 1.5 µM. This molecule also had a dissociation rate constant (koff) in experiment [10] of 0.000915 s⁻¹.

B9: anti-LDH VHH clone No. 421, protein A-fused type (VHH)
VHH: AVQLVESGGGSVQAGGFLRLSCVASVNYCMAWFRQAPGKEREGVAAINRDGRTTAYADSVKGRFTISRGNEKNTVYLLMNNLKAEDTATYYCAAYVGGSYSCGTLENDGYKYWGQGTQVTVSS
notes: as for B1
In [3], B9 yielded a Ka of 5.83e+06 M⁻¹, a Kd of 172 nM, a dissociation rate constant (koff) of 0.00409 s⁻¹ and a kon of 23900 M⁻¹ s⁻¹. For the same molecule, in experiment [4], the “response at saturating amount (RU)” value is around 1400 RU. The “LDH reaction rate in the direction” value in experiment [2] came to 10 fold. In [5], this molecule gave a Ka of 5.83e+06 M⁻¹, a Kd of 171 nM, a koff of 0.00409 s⁻¹ and a kon of 23900 M⁻¹ s⁻¹.

B10: anti-GST VHH clone No. 29, protein A-fused type (VHH, not shown: large carriers)
VHH: EVQLVESGGGSVQAGGSLKLSCGLSGYTSSMNAMGWFRQAPGKEREGVAAVSRGGKAYYADSVKGRFTVSRDNVKNTVDLQMKGLKAEDTATYYCAATDESPLRRRFSLLDRRRYDWWGRGTQVFVSS
For B10, in experiment [11], the koff was found to be 0.00255 s⁻¹ and the association rate constant (kon) was 25400 M⁻¹ s⁻¹. Further, in [8], the Kd worked out at 100 nM. The response at saturating amount (RU) in experiment [12] turned out to be 460 RU.
